According to paper PMC5471267, “Novel regulatory mechanism of serine biosynthesis associated with 3-phosphoglycerate dehydrogenase in Arabidopsis thaliana” (Scientific Reports, 2017):
Where “and” joins values, the source holds several entries; their conditions need not be identical. Equal entries are not always repeated.

Key:
AtPGDH3 = target: T1, AtPGDH3 (Arabidopsis thaliana, UniProt Q9LT69); assay: 3-PGA oxidation, NADH absorbance at […] nm; Hill fit; format: biochemical
T1 construct: gene PGDH3; mature enzyme, predicted chloroplast transit peptide removed; eXact tag cleaved (tag-free); E. coli BL21 CodonPlus(DE3)-RIL; homotetramer
T1 sequence (Q9LT69 44-588 limits assumed): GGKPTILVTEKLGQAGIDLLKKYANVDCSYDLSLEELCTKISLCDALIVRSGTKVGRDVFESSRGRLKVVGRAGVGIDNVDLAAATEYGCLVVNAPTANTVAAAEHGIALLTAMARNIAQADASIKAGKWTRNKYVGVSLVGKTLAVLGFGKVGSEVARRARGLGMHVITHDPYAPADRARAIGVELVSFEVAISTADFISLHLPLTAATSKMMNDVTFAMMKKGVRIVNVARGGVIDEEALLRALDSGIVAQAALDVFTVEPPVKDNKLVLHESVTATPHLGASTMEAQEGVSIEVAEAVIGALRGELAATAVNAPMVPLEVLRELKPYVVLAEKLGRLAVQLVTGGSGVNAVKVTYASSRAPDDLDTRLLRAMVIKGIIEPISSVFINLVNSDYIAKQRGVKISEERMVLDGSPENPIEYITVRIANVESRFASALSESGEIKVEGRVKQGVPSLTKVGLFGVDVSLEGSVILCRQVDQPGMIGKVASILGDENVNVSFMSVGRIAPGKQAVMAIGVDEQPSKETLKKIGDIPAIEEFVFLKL

AtPGDH1 = target: T2, AtPGDH1 (Arabidopsis thaliana, UniProt O49485); assay: 3-PGA oxidation, NADH absorbance at […] nm; Hill fit; format: biochemical
T2 construct: gene PGDH1; mature enzyme, predicted chloroplast transit peptide removed; eXact tag cleaved (tag-free); E. coli BL21 CodonPlus(DE3)-RIL; homotetramer
T2 sequence (O49485 59-603 limits assumed): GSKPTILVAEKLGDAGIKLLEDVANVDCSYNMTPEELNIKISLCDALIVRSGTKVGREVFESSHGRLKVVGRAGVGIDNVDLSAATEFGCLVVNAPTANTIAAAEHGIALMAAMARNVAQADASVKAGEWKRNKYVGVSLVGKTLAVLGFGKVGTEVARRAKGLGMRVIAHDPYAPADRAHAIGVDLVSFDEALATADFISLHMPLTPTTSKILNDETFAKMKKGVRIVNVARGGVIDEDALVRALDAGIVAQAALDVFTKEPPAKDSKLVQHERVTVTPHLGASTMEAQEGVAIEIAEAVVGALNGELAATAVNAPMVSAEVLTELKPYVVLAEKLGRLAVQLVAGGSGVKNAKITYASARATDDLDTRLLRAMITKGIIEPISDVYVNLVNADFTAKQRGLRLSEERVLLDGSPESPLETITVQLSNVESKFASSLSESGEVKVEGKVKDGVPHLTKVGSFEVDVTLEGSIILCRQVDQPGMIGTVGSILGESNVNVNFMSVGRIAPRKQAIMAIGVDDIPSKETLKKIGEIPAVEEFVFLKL

[1] = target: AtPGDH-N2/C1: chimera of the N-terminal half of AtPGDH2 and the C-terminal half of AtPGDH1 (A. thaliana); assay: SEC; HiLoad 26/600 Superdex 200 preparation grade column, flow rate 1 mL/min, 100 mM sodium phosphate buffer (pH 9.0); native molecular weight estimated from a standard curve of marker proteins; oligomer of the protein with itself
AtPGDH-N2/C1 = system: T3, AtPGDH-N2/C1; assay: 3-PGA oxidation, NADH absorbance at […] nm; Hill fit; format: biochemical, Arabidopsis thaliana; details: inhibitor, cooperative; 10 mM 3-PGA, 1 mM NAD+, 0.1 M NaCl, pH 9.0, 25 °C
T3 construct: gene PGDH2; one fused polypeptide: N-terminal half (catalytic domain) of AtPGDH2 + C-terminal half (ASB and ACT domains) of AtPGDH1; tag-free, E. coli; homotetramer

purified protein [2] = substrate: NC(=O)c1ccc[n+]([C@@H]2O[C@H](COP(=O)(O)OP(=O)(O)OC[C@H]3O[C@@H](n4cnc5c(N)ncnc54)[C@H](O)[C@@H]3O)[C@@H](O)[C@H]2O)c1; assay: purified protein; format: biochemical, Arabidopsis thaliana; details: 10 mM 3-PGA, 0.1 M NaCl, pH 9.0, 25 °C, varied: cofactor
purified protein [3] = substrate: O=C(O)[C@H](O)COP(=O)(O)O; assay: purified protein; format: biochemical, Arabidopsis thaliana; details: 1 mM NAD+, 0.1 M NaCl, pH 9.0, 25 °C
[4] = target: the molecule itself; assay: SEC; HiLoad 26/600 Superdex 200 preparation grade column, flow rate 1 mL/min, 100 mM sodium phosphate buffer (pH 9.0); native molecular weight estimated from a standard curve of marker proteins; oligomer of the protein with itself

## N[C@@H](CCS)C(=O)O [L-homocysteine]
AtPGDH3
  EC50: 69 µM
AtPGDH1
  EC50: 23 µM

## CC(C)[C@H](N)C(=O)O [L-valine]
AtPGDH3
  EC50: 2300 ± 200 µM
AtPGDH1
  EC50: 7100 ± 200 µM

## AtPGDH-N2/C1: chimera of the N-terminal half of AtPGDH2 and the C-terminal half of AtPGDH1 (enzyme)
[1]
  stoichiometry N: 4

## N[C@@H](CO)C(=O)O [L-serine]
AtPGDH3
  EC50: 1300 µM
AtPGDH-N2/C1
  EC50: 2700 ± 100 µM
AtPGDH1
  EC50: 6600 µM

## CSCC[C@H](N)C(=O)O [L-methionine]
AtPGDH3
  EC50: 2500 ± 100 µM
AtPGDH1
  EC50: 670 µM

## N[C@@H](CCO)C(=O)O [L-homoserine]
AtPGDH3
  EC50: 9200 ± 300 µM
AtPGDH1
  EC50: 3000 ± 300 µM

B1: AtPGDH2 (Arabidopsis thaliana) (protein)
chain: LPKPRILVTEKLGEAGVNLLREFGDVDCSYDLSPEDLKKKVAESDALIVRSGTKVTREVFEAAKGRLKVVGRAGVGIDNVDLQAATEHGCLVVNAPTANTVAAAEHGIALLASMARNVAQADASIKAGKWERSKYVGVSLVGKTLAVMGFGKVGTEVARRAKGLGMTVISHDPYAPADRARALGVDLVSFDQAISTADFVSLHMPLTPATKKVFNDETFSKMKKGVRLINVARGGVIDEDALVRALDAGIVAQAALDVFCEEPPSKDSRLIQHENVTVTPHLGASTKEAQEGVAIEIAEAVAGALKGELSATAVNAPMVAPEVLSELTPYIVLAEKLGRLAVQLASGGKGVQSIRVVYRSARDRDDLDTRLLRAMITKGIIEPISDSYVNLVNADFIAKQKGLRISEERMVVDSSPEYPVDSIQVQILNVESNFAGAVSDAGDISIEGKVKYGVPHLTCVGSFGVDVSLEGNLILCRQVDQPGMIGQVGNILGEQNVNVNFMSVGRTVLRKQAIMAIGVDEEPDNKTLERIGGVSAIEEFVFLKL
notes: mature enzyme, predicted chloroplast transit peptide removed; eXact tag cleaved (tag-free); E. coli BL21 CodonPlus(DE3)-RIL; equilibrium of homooctamers and homotetramers
Purified protein [2]
  Km: 123 ± 7 µM
  kcat: 16 s⁻¹
Purified protein [3]
  Km: 1030 ± 70 µM
  kcat: 16 s⁻¹

B2: AtPGDH3 (Arabidopsis thaliana) (protein)
chain: GGKPTILVTEKLGQAGIDLLKKYANVDCSYDLSLEELCTKISLCDALIVRSGTKVGRDVFESSRGRLKVVGRAGVGIDNVDLAAATEYGCLVVNAPTANTVAAAEHGIALLTAMARNIAQADASIKAGKWTRNKYVGVSLVGKTLAVLGFGKVGSEVARRARGLGMHVITHDPYAPADRARAIGVELVSFEVAISTADFISLHLPLTAATSKMMNDVTFAMMKKGVRIVNVARGGVIDEEALLRALDSGIVAQAALDVFTVEPPVKDNKLVLHESVTATPHLGASTMEAQEGVSIEVAEAVIGALRGELAATAVNAPMVPLEVLRELKPYVVLAEKLGRLAVQLVTGGSGVNAVKVTYASSRAPDDLDTRLLRAMVIKGIIEPISSVFINLVNSDYIAKQRGVKISEERMVLDGSPENPIEYITVRIANVESRFASALSESGEIKVEGRVKQGVPSLTKVGLFGVDVSLEGSVILCRQVDQPGMIGKVASILGDENVNVSFMSVGRIAPGKQAVMAIGVDEQPSKETLKKIGDIPAIEEFVFLKL
notes: mature enzyme, predicted chloroplast transit peptide removed; eXact tag cleaved (tag-free); E. coli BL21 CodonPlus(DE3)-RIL; homotetramer
Purified protein [3]
  Km: 770 ± 90 µM
  kcat: 17 s⁻¹

B3: AtPGDH1 (Arabidopsis thaliana) (protein)
chain: GSKPTILVAEKLGDAGIKLLEDVANVDCSYNMTPEELNIKISLCDALIVRSGTKVGREVFESSHGRLKVVGRAGVGIDNVDLSAATEFGCLVVNAPTANTIAAAEHGIALMAAMARNVAQADASVKAGEWKRNKYVGVSLVGKTLAVLGFGKVGTEVARRAKGLGMRVIAHDPYAPADRAHAIGVDLVSFDEALATADFISLHMPLTPTTSKILNDETFAKMKKGVRIVNVARGGVIDEDALVRALDAGIVAQAALDVFTKEPPAKDSKLVQHERVTVTPHLGASTMEAQEGVAIEIAEAVVGALNGELAATAVNAPMVSAEVLTELKPYVVLAEKLGRLAVQLVAGGSGVKNAKITYASARATDDLDTRLLRAMITKGIIEPISDVYVNLVNADFTAKQRGLRLSEERVLLDGSPESPLETITVQLSNVESKFASSLSESGEVKVEGKVKDGVPHLTKVGSFEVDVTLEGSIILCRQVDQPGMIGTVGSILGESNVNVNFMSVGRIAPRKQAIMAIGVDDIPSKETLKKIGEIPAVEEFVFLKL
notes: as for B2
Purified protein [2]
  Km: 50 ± 2 µM
  kcat: 15 s⁻¹
Purified protein [3]
  Km: 500 ± 50 µM
  kcat: 15 s⁻¹

B4: Arabidopsis thaliana 3-phosphoglycerate dehydrogenase 3 (AtPGDH3), recombinant, without the predicted transit peptide (enzyme, A. thaliana, UniProt Q9LT69 39-588, looked up)
chain: SSSGGGGKPTILVTEKLGQAGIDLLKKYANVDCSYDLSLEELCTKISLCDALIVRSGTKVGRDVFESSRGRLKVVGRAGVGIDNVDLAAATEYGCLVVNAPTANTVAAAEHGIALLTAMARNIAQADASIKAGKWTRNKYVGVSLVGKTLAVLGFGKVGSEVARRARGLGMHVITHDPYAPADRARAIGVELVSFEVAISTADFISLHLPLTAATSKMMNDVTFAMMKKGVRIVNVARGGVIDEEALLRALDSGIVAQAALDVFTVEPPVKDNKLVLHESVTATPHLGASTMEAQEGVSIEVAEAVIGALRGELAATAVNAPMVPLEVLRELKPYVVLAEKLGRLAVQLVTGGSGVNAVKVTYASSRAPDDLDTRLLRAMVIKGIIEPISSVFINLVNSDYIAKQRGVKISEERMVLDGSPENPIEYITVRIANVESRFASALSESGEIKVEGRVKQGVPSLTKVGLFGVDVSLEGSVILCRQVDQPGMIGKVASILGDENVNVSFMSVGRIAPGKQAVMAIGVDEQPSKETLKKIGDIPAIEEFVFLKL
notes: region that corresponds with the mature enzyme, the chloroplast transit peptide having been predicted by comparison with MtPGDH; theoretical molecular weight 57.9 kDa; also called At3g19480
[4]
  stoichiometry N: 4

B5: Arabidopsis thaliana 3-phosphoglycerate dehydrogenase 1 (AtPGDH1), recombinant, without the predicted transit peptide (enzyme, A. thaliana, UniProt O49485 55-603, looked up)
chain: STGDGSKPTILVAEKLGDAGIKLLEDVANVDCSYNMTPEELNIKISLCDALIVRSGTKVGREVFESSHGRLKVVGRAGVGIDNVDLSAATEFGCLVVNAPTANTIAAAEHGIALMAAMARNVAQADASVKAGEWKRNKYVGVSLVGKTLAVLGFGKVGTEVARRAKGLGMRVIAHDPYAPADRAHAIGVDLVSFDEALATADFISLHMPLTPTTSKILNDETFAKMKKGVRIVNVARGGVIDEDALVRALDAGIVAQAALDVFTKEPPAKDSKLVQHERVTVTPHLGASTMEAQEGVAIEIAEAVVGALNGELAATAVNAPMVSAEVLTELKPYVVLAEKLGRLAVQLVAGGSGVKNAKITYASARATDDLDTRLLRAMITKGIIEPISDVYVNLVNADFTAKQRGLRLSEERVLLDGSPESPLETITVQLSNVESKFASSLSESGEVKVEGKVKDGVPHLTKVGSFEVDVTLEGSIILCRQVDQPGMIGTVGSILGESNVNVNFMSVGRIAPRKQAIMAIGVDDIPSKETLKKIGEIPAVEEFVFLKL
notes: AtPGDH1 (At4g34200), A. thaliana; region that corresponds with the mature enzyme, the chloroplast transit peptide having been predicted by comparison with MtPGDH; theoretical molecular weight 57.5 kDa; The start of the 'mature' region is a prediction of the authors from an alignment with MtPGDH; also called At4g34200
[4]
  stoichiometry N: 4

B6: Arabidopsis thaliana 3-phosphoglycerate dehydrogenase 2 (AtPGDH2), recombinant, without the predicted transit peptide (enzyme, A. thaliana, UniProt O04130-1 50-624, looked up)
chain: AALKTVEQTTLTEDNRFSTVGSDSDEYNPTLPKPRILVTEKLGEAGVNLLREFGDVDCSYDLSPEDLKKKVAESDALIVRSGTKVTREVFEAAKGRLKVVGRAGVGIDNVDLQAATEHGCLVVNAPTANTVAAAEHGIALLASMARNVAQADASIKAGKWERSKYVGVSLVGKTLAVMGFGKVGTEVARRAKGLGMTVISHDPYAPADRARALGVDLVSFDQAISTADFVSLHMPLTPATKKVFNDETFSKMKKGVRLINVARGGVIDEDALVRALDAGIVAQAALDVFCEEPPSKDSRLIQHENVTVTPHLGASTKEAQEGVAIEIAEAVAGALKGELSATAVNAPMVAPEVLSELTPYIVLAEKLGRLAVQLASGGKGVQSIRVVYRSARDRDDLDTRLLRAMITKGIIEPISDSYVNLVNADFIAKQKGLRISEERMVVDSSPEYPVDSIQVQILNVESNFAGAVSDAGDISIEGKVKYGVPHLTCVGSFGVDVSLEGNLILCRQVDQPGMIGQVGNILGEQNVNVNFMSVGRTVLRKQAIMAIGVDEEPDNKTLERIGGVSAIEEFVFLKL
notes: AtPGDH2 (At1g17745), A. thaliana; region that corresponds with the mature enzyme, the chloroplast transit peptide having been predicted by comparison with MtPGDH; theoretical molecular weight 57.6 kDa; Found as an equilibrium of homooctamers and homotetramers; also called At1g17745
[4]
  stoichiometry N: 8 and 4
